Starred links: 1 amine or outer side, 2 acyl side, 3 side chain; linkers in the order of their positions; H or OH if unused. Non-standard residues stand in square brackets, D forms with d. Groups on a side chain read outwards from the residue. No end group written: not given here. *: point of attachment. C20 diacid = O=C(O)CCCCCCCCCCCCCCCCCCC(=O)*; αMePhe(2-F) = C[C@](N)(Cc1ccccc1F)C(=O)O; γGlu = O=C(O)[C@H](CCC(=O)[*:2])N[*:1]; NMeY = CN[C@@H](Cc1ccc(O)cc1)C(=O)O; αMeF = C[C@](N)(Cc1ccccc1)C(=O)O; αMeL = CC(C)C[C@](C)(N)C(=O)O; Orn = NCCC[C@H](N)C(=O)O; AEEA = NCCOCCOCC(=O)O; Aib = CC(C)(N)C(=O)O
T1: human GIP receptor (human) (UniProt P48546)
T1 sequence (looked up): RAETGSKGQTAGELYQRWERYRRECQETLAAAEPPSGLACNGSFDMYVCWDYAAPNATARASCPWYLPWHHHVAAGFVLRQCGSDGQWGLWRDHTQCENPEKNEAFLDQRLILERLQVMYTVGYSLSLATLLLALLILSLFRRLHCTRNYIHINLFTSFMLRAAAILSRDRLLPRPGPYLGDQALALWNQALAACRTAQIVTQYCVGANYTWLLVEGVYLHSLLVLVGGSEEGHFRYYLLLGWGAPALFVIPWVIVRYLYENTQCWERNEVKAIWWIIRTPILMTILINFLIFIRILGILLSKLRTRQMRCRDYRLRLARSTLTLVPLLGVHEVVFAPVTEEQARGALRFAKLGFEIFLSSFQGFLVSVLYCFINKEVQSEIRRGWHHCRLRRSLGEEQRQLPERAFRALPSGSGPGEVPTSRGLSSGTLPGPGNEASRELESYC


Assays:
Assay in all cases: cell-based or functional assay
[1] = biological target: hGLP-1R (Homo sapiens, UniProt P43220)
[2] = biological target: T1, human GIP receptor (human)
[3] = biological target: human glucagon receptor (human) (UniProt P47871)
Chain of human glucagon receptor (human) (P47871 26-477): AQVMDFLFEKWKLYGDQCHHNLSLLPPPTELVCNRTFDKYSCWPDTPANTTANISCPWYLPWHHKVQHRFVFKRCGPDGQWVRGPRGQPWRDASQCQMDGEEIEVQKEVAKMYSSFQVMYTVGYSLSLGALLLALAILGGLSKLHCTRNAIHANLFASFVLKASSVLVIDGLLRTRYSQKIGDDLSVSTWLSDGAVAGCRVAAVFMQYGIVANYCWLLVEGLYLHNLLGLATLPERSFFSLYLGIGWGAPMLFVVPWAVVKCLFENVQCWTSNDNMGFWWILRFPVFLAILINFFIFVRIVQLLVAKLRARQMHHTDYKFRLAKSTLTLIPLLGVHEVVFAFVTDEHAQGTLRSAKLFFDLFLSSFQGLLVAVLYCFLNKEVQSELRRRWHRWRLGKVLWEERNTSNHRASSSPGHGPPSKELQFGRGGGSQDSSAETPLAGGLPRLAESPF

Chain of hGLP-1R (P43220 24-463): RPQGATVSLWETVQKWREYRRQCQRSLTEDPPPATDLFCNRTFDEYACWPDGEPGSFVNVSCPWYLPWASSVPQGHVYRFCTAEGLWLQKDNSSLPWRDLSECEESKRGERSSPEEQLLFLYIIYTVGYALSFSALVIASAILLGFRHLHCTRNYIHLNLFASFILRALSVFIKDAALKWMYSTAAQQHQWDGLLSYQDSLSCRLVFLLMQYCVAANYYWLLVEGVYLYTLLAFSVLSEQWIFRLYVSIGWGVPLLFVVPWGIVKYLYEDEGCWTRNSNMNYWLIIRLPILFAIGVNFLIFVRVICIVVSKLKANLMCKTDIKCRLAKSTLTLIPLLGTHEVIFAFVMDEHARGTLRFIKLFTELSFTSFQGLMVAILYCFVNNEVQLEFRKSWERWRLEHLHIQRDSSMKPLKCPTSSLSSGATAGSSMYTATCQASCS

Binder | Relative cAMP EC50 [1] | cAMP Rel EC50 (in the presence of 1% HSA) [1] | Relative cAMP EC50 [2] | cAMP Rel EC50 (in the presence of 1% HSA) [2] | Relative cAMP EC50 [3] | cAMP Rel EC50 (in the presence of 1% HSA) [3] | cAMP Rel EC50 (1% HSA) [1] | cAMP Rel EC50 (1% HSA) [2] | cAMP Rel EC50 (1% HSA) [3]
YXQGTFTSDFSXXLDKKAQXAFIEWLLEXGSSSGAPPPSGT (Aib, Orn, αMeL, acylated K, C-terminal amide; synthetic construct; SITE 2: note = 2-Aminoisobutyric Acid; SITE 12: note = L-ornithine; SITE 13: note = alpha-methyl-leucine; SITE 17: note = Lysine is chemically modified through conjugation of the epsilon-amino group of the Lysine side chain with (2-[2-(2-Amino-ethoxy)-ethoxy]-acetyl)-(gamma-Glu)) [Example 264] | 4.67 nM | 688 nM | 0.0884 nM | 12.4 nM | 6.29 nM | 1000 nM |  |  | 
YXQGTXTSDYSKXLDKKAQXQFIEYLEEGGPSSGEPPPSEG (non-natural residues; lipidated Lys; C-terminal amide; synthetic construct; SITE 2: note = 2-Aminoisobutyric Acid; SITE 6: note = alpha-methyl-2-fluoro-L-phenylalanine; SITE 13: note = alpha-methyl-leucine; SITE 17: note = Lysine is chemically modified through conjugation of the epsilon-amino group of the Lysine side chain with (2-[2-(2-Amino-ethoxy)-et)) [Example 292] | 1.03 nM | 129 nM | 1.02 nM | 92.7 nM | 1.84 nM | 583 nM |  |  | 
Y[Aib]QGT[αMePhe(2-F)]TSDYSILLDKAAQK[Orn]FIEYLIEGGPSSGEPPPSEG-NH2 (not fully specified (residue 20)) [Example 306] | 0.335 nM |  | 0.142 nM |  | 5.8 nM |  | 126 nM | 95.3 nM | 2820 nM
Y[Aib]QGT[αMePhe(2-F)]TSDYSKLLDKIAQK([AEEA-γGlu-C20 diacid])[Orn]FIEWLIEGGPSSGEPPPSEG-NH2 [Example 310] | 0.586 nM |  | 0.0939 nM |  | 3.52 nM |  | 177 nM | 15 nM | 4000 nM
[NMeY][Aib]QGT[αMeF]TSDYSILLDKIAAKAFIEYLIEGGPSSGEPPPSEG-NH2 (not fully specified (residue 20)) [Example 299] | 0.963 nM |  | 0.137 nM |  | 2.54 nM |  | 380 nM | 40.2 nM | 1700 nM
YXQGTFTSDXSKXLDKKAQXAFIEYLIEXGESSGEPPPSGE (Aib, 4Pal, alpha-methyl-Leu, lipidated Lys, C-terminal amide; synthetic construct; SITE 2: note = 2-Aminoisobutyric Acid; SITE 10: note = 3-(4-Pyridyl)-L-alanine; SITE 13: note = alpha-methyl-leucine; SITE 17: note = Lysine is chemically modified through conjugation of the epsilon-amino group of the Lysine side chain with (2-[2-(2-Amino-ethoxy)-ethoxy]-acetyl)) [Example 281] | 1.6 nM | 295 nM | 0.154 nM | 25.8 nM | 13.7 nM | 1370 nM |  |  | 
YXQGTFTSDXSKXLDKKAQXAFIEYLIEAGESSGEPPPSGS (non-natural residues, AEEA-γGlu-diacid acylated Lys, C-terminal amide; synthetic construct; SITE 2: note = 2-Aminoisobutyric Acid; SITE 10: note = 3-(4-Pyridyl)-L-alanine; SITE 13: note = alpha-methyl-leucine; SITE 17: note = Lysine is chemically modified through conjugation of the epsilon-amino group of the Lysine side chain with (2-[2-(2-Amino-ethoxy)-ethoxy]-acetyl)) [Example 284] | 1.54 nM | 271 nM | 0.347 nM | 59.8 nM | 9.21 nM | 1530 nM |  |  | 
YXQGTFTSDXSKXLDKKAQXAFIEYLIEAGESSGAPPPSGS (Aib, 4Pal, αMeL, D-Ala; K acylated AEEA-γGlu-C18 diacid; amide; synthetic construct; SITE 2: note = 2-Aminoisobutyric Acid; SITE 10: note = 3-(4-Pyridyl)-L-alanine; SITE 13: note = alpha-methyl-leucine; SITE 17: note = Lysine is chemically modified through conjugation of the epsilon-amino group of the Lysine side chain with (2-[2-(2-Amino-ethoxy)-ethoxy]-acetyl)) [Example 283] | 1.16 nM | 233 nM | 0.225 nM | 47.2 nM | 9.73 nM | 1470 nM |  |  | 
YXQGTFTSDXSKXLDKKAQXAFIEYLIAXGESSGEPPPSGS (non-natural residues (Aib, 4Pal, αMeL); lipidated K; C-terminal amide; synthetic construct; SITE 2: note = 2-Aminoisobutyric Acid; SITE 10: note = 3-(4-Pyridyl)-L-alanine; SITE 13: note = alpha-methyl-leucine; SITE 17: note = Lysine is chemically modified through conjugation of the epsilon-amino group of the Lysine side chain with (2-[2-(2-Amino-ethoxy)-ethoxy]-acetyl)) [Example 287] | 4.25 nM | 562 nM | 0.0633 nM | 9.94 nM | 2.53 nM | 291 nM |  |  | 
YXQGTFTSDXSKXLDKKAQXAFIEYLIAXGESSGEPPPSGE (non-natural residues, AEEA-γGlu-diacid acylated Lys, C-terminal amide; synthetic construct; SITE 2: note = 2-Aminoisobutyric Acid; SITE 10: note = 3-(4-Pyridyl)-L-alanine; SITE 13: note = alpha-methyl-leucine; SITE 17: note = Lysine is chemically modified through conjugation of the epsilon-amino group of the Lysine side chain with (2-[2-(2-Amino-ethoxy)-ethoxy]-acetyl)) [Example 286] | 3.45 nM | 925 nM | 0.0845 nM | 11.5 nM | 2.2 nM | 228 nM |  |  | 
Y[Aib]QGTFTSDYSI[αMeL]LDKK([AEEA-γGlu-C20 diacid])AQRAFIEYLLEGGPSSGEPPPSG-NH2 (N-terminus assumed; SMILES CC[C@H](C)[C@H](NC(=O)[C@H](Cc1ccccc1)NC(=O)[C@H](C)NC(=O)[C@H](CCCNC(=N)N)NC(=O)[C@H](CCC(N)=O)NC(=O)[C@H](C)NC(=O)[C@H](CCCCNC(=O)COCCOCCNC(=O)CC[C@H](NC(=O)CCCCCCCCCCCCCCCCCCC(=O)O)C(=O)O)NC(=O)[C@H](CCCCN)NC(=O)[C@H](CC(=O)O)NC(=O)[C@H](CC(C)C)NC(=O)[C@](C)(CC(C)C)NC(=O)[C@@H](NC(=O)[C@H](CO)NC(=O)[C@H](Cc1ccc(O)cc1)NC(=O)[C@H](CC(=O)O)NC(=O)[C@H](CO)NC(=O)[C@@H](NC(=O)[C@H](Cc1ccccc1)NC(=O)[C@@H](NC(=O)CNC(=O)[C@H](CCC(N)=O)NC(=O)C(C)(C)NC(=O)[C@@H](N)Cc1ccc(O)cc1)[C@@H](C)O)[C@@H](C)O)[C@@H](C)CC)C(=O)N[C@@H](CCC(=O)O)C(=O)N[C@@H](Cc1ccc(O)cc1)C(=O)N[C@@H](CC(C)C)C(=O)N[C@@H](CC(C)C)C(=O)N[C@@H](CCC(=O)O)C(=O)NCC(=O)NCC(=O)N1CCC[C@H]1C(=O)N[C@@H](CO)C(=O)N[C@@H](CO)C(=O)NCC(=O)N[C@@H](CCC(=O)O)C(=O)N1CCC[C@H]1C(=O)N1CCC[C@H]1C(=O)N1CCC[C@H]1C(=O)N[C@@H](CO)C(=O)NCC(N)=O) [Example 313] | 0.304 nM |  | 0.49 nM |  | 4.11 nM |  | 135 nM | 86.4 nM | 3290 nM
Y[Aib]QGTFTSDYSI[αMeL]LDKIAAK([AEEA-AEEA-γGlu-C20 diacid])QFVEYLIAGGPSSGEPPPSEG-NH2 [Example 312] | 2.66 nM |  | 0.504 nM |  | 7.5 nM |  | 589 nM | 97.7 nM | 4070 nM
Y[Aib]QGT[αMePhe(2-F)]TSDYSKLLDEIAQKAFIEYLLEGGPSSGEPPPSEG-NH2 (not fully specified (residue 20)) [Example 303] | 1.13 nM |  | 0.116 nM |  | 6.1 nM |  | 257 nM | 44.7 nM | 9950 nM
